The results in this text go back to US20110135636A1 (SYMPHOGEN A S, published 2011).

Test [1] concerns the target T1, wild type full length EGFR purified from A431 cells (human, UniProt P00533 25-1210).
T1 construct: mature; Bought; coated on ELISA wells; also called full length EGFR receptor antigen; Sigma E3641
Nature of the test: indirect ELISA, Fab on coated purified full length EGFR.

Test [2] addresses T2, full length human EGFR expressed on the cell surface (human, UniProt P00533 25-1210).
T2 construct: whole, on cells; also called EGFR on A431-NS cells; EGFR on HN5 cells
Nature of the test: cell ELISA, Fab on A431-NS cells. On the procedure:
(§1) Cell ELISA: The relative binding affinities defined as the molar concentration giving the half maximal OD (ED50) were determined by antibody titrations on A431-NS cells. Briefly, 10,000 A431-NS cells were grown in 96 well ELISA plates containing DMEM with added 0.5% FCS and 1% P/S at 37° C., 5% CO₂ overnight. […] Then 50 μl of a secondary Goat-anti-Human (Fab specific) HRP conjugate diluted 1:5000 in DMEM containing 1% BSA was added and incubated on ice for 30 min. Finally wells were washed four times with PBS and plates developed by adding 50 μl/well TMB Plus substrate and read at 620 nm every 5-15-30 min. After incubation with substrate the reaction was stopped by addition of 1 M H₂SO₄ and absorbance read at 450 nm. The functional affinity expressed as ED50 values were calculated by subtraction of the average background binding with secondary reagent only, followed by normalization of the binding curves by plotting % maximal binding relative to each antibody tested.

For test [3], the target named is T2, full length human EGFR expressed on the …. Nature of the test: cell ELISA, Fab titrated on paraformaldehyde-fixed A431-NS cells. The method, then:
as §1

The target is the same in test [4]. Nature of the test: cell ELISA, Fab titrated on paraformaldehyde-fixed A431-NS cells; given as ED50. On the procedure: as §1
Test [5] concerns the target T3, EGFR-Fc (recombinant EGFR ECD-Fc chimera, R&D Systems 344-ER) (human, UniProt P00533 25-645).
T3 construct: extracellular domain; Bought; also called immobilized Human EGFR ECD; immobilized receptor; not shown: human IgG Fc
Nature of the test: SPR (BIAcore 2000); Fab over immobilized EGFR ECD-Fc against IgG with soluble EGFR ECD.

Test [6] deals with T3, EGFR-Fc (recombinant EGFR ECD-Fc …). Kind of test: SPR (BIAcore 2000); Fab over immobilized EGFR ECD-Fc.
The target of test [7] is T4, recombinant human EGFR extracellular domain with 6xHis (human, UniProt P00533 25-645).
T4 construct: In-house produced; also called 6xHis EGFR ECD; soluble human EGFR ECD; not shown: 6xHis tag
Nature of the test: SPR (Biacore 3000) on captured 6xHis EGFR ECD.

Test [8] addresses T5, Cynomolgus EGFR extracellular domain (Cynomolgus monkey (Macaca fascicularis), UniProt P55245 25-645 (rhesus entry)).
T5 construct: Cloned without signal peptide; also called Cynomolgus rEGFR ECD; Cynomolgus EGFR ECD
Kind of test: ELISA on cynomolgus EGFR ECD (Example 10). The method, then:
To verify that tested Anti-EGFR antibodies bound equally well to both Human and Cynomolgus EGFR ECD and accordingly warranting toxicology studies in Cynomolgus monkeys, serial four fold dilutions of antibodies beginning from 1 μg/ml were tested by ELISA for binding to recombinant Human and Cynomolgus EGFR ECD proteins. […] ELISA wells were coated with 50 μl/well of full length EGFR at a concentration of 1 μg/ml in PBS overnight at 4° C. The next morning wells were washed twice with PBS-T and blocked for one hour with 100 μl PBS-T-1% BSA at room temperature, followed by wash twice in PBS-T. Next 50 μl of serially diluted Anti-EGFR antibodies and control antibodies were added to wells and incubated for one hour at room temperature. After antibody incubation wells were washed five times with PBS-T, followed by incubation with 50 μl/well Streptavidin-HRP secondary reagent diluted 1:3000 in blocking buffer and incubation at room temperature for 30 min. Finally wells were washed five times with PBS-T and plates were developed by adding 50 μL/well TMB substrate and incubated at room temperature. After incubation the reaction was stopped by addition of 1 M H₂SO₄; 100 μl/well and plates were read at OD 450 nm.

B1: Fab 1030 (Fab, V domains shown, not shown: small tags and cut ends)
VH: EVQLVESGGGLVKPGGSLKLSCAASGFTFSSYALSWVRQTPERRLEWVASISGVGSTYFPDSVKGRFTMSRDNARNILYLQMSSLRSEDTAMYYCARGSDGYFYAMDYWGQGTSVTVS
VL: DIVLTQSPASLAVSLGQRATISCRASKSVSTSGYSFMHWYQLKPGQPPKLLIYLASNLESGVPARFSGSGSGTDFTLNIHPVEEEDAATYYCQHSREFPLTFGGGTKLEIKR
Turning to B1, the “EC50 (read off the curve)” value in test [1] is ~4 nM. The “EC50 (read off the curve)” value in test [2] was ~1 nM. The “Log ED50” value in test [3] was found to be 0.27. In test [4], this molecule displayed an EC50 of 1.8 nM. For the same molecule, the “fold higher affinity against immobilized antigen than against soluble receptor” value in test [5] was found to be 10 fold. For the same molecule, in test [6], the Kd stood at 2.3 nM, the koff was found to be 0.0002 s⁻¹, the kon was found to be 87000 M⁻¹ s⁻¹ and the “t1/2” value is 57.5 min.

B2: antibody 1229 (antibody, human IgG1, kappa, V domains shown)
VH: QVQLKESGPGLVAPSQSLSITCSVSGFSLTIYGVHWVRQPPGKGLEWLGVMWAGGNTDYNSALMSRLNISKDNSKSQVFLKVNSLQTDDTAMYYCTRDPDGYYVGWFFDVWGAGTTVTVSS
VL: DIVMTQSHKFMSTSVGDRVSITCKASQDVTNAVAWYQQKPGQSPKLLIYWASIRHTGVPDRFTGSRSGTDYTLTINSVQAEDLALYYCQQHYNTPLTFGAGTKLEIKR
notes: Chimeric IgG1 kappa
For B2, the figures for the binding result in test [7] and in test [8] were “no binding (tested: 40 ug/ml)” and “no binding”, respectively.
